Experimental findings from a protein production outcome set (Wang et al. 2014) are described below.

A short description of this series: label from the status in PepcDB records.

With “MVPCWNHGNITRSKAEELLSRTGKDGSFLVRASESISRAYALCVLYRNCVYTYRILPNEDDKFTVQASEGVSMRFFTKLDQLIEFYKKENMGLVTHLQYPVPLEEEDTGDDPEEDTVESVVSPPELPPRNIPLTASSCEAKEVPFSNENPRATETSRPSLSETLFQRLQSMDTSGLPEEHLKAIQDYLSTQLAQDSEFVKTGSSSLPHLKKLTTLLCKELYGEVIRTLPSLESLQRLFDQQLSPGLRPRPQVKG”, the protein production entry is recorded as “not failed”. The result for “MVPDYFSASEWTIIADVLGANSRHLFELYALKQSNHYQSLMGSKAGTFEDIVDAYLAYLQVAVVNPAMDKALLRLQRYATDVRKGSIPYEKLRFGASWRHPPQTEDPTQNSEWAKIQLMDFVQALVNTEFAVGILYTQRDPSFFRPISQGIKRCLVRWNVDEISVSCARTHVGLRFYREVENIKGRCFCCRQGLTFSKITLRRDVGGKNLQLQNGVIVTTDRSSLQRLKQKPDLIYGIWERPHGFNLRSVQENNEHNN” reads “failed”; that for “MVPIPNGVSAKETHKLMGRGIAAFALLLLLQVSGSIVTQSGLAAPWWNAMFLWLLLTGIGCFSVASIRGRGLRWTSSILSLLVLAGLLLWPAAVPTTVPVDIGTPWLWAMINVGAAWSAFAFGTLPGCVYTVVIGSVFAVVRTLPQSGSASPSTAIQDASFSTVLGIIICLTIGILRQASERVDTAAENAINRYREAAAETALSNERTRVDGLLHDSVMSALLTASRSGSSLERLSSAELARSALARLGEHEIKQTDATTVSVSELASRIRFTVQDDGDTPTVTVTGEGSTSLLLSGQVVRALFEASTEAVANAVRHSNATRCEVRVLGQDPKGIARVVVSVKDNGDGFRQELVSDRRLGIKVSIIGRMRTIGGTADISSHPGKGTEVILTWAGEA”, “failed”. The result for “MVQDQIRYDILVQDALRGVIRKVLSEVAKAGLPGSHHFFITFLTNAPGVKISTRLKSRYPEQMTIVLQHQFRDLNVSETAFEVTLSFREVSEKLVIPFHSIQVFYDPVAAFEAAFDLPSNLNSKEGENLENIASTPVILSDTQKKEKKFPKEQISKTNKDSSNNDTKQSADVVSLDSFRKKLEHHHHHH” reads “not failed”; that for “MVQEEKAMEAINDALRALRKRHLLEEGAHAPAISALSKPLISQGSEWKEKTEKLETELQQCYKAQSRLSEQLVIEVAESRTSKAILQEKELLINDLQKELTQRREDCTRLQEELEEKTKTVDVLIAENLEIRSQLEEMTSRVQKAETENKMLIDRWMLQKMQDAERLNEANDLYEEMLAKLKANGLETLARQQVDGIVRRNEDGTDHFVESTIPSTCANRIHAHEGGCGSIVFEYNSGTLFTGGQDRAVKMWDTNSGTLIKSLYGSLGNILDMAVTHDNKSVIAATSSNNLFVWDVSSGRVRHTLTGHTDKVCAVDVSKFSSRHVVSAAYDRTIKLWDLHKGYCTNTVLFTSNCNAICLSIDGLTVFSGHMDGNLRLWDIQTGKLLSEVAGHSSAVTSVSLSRNGNRILTSGRDNVHNVFDTRTLEICGTLRASGNRLASNWSRSCISPDDDYVAAGSADGSVHVWSLSKGNIVSILKEQTSPILCCSWSGIGKPLASADKNGYVCTWT”, “failed”.

In the case of “MVQLDQRVRFKSATSIISIEMWERFSFYGMQALLVYYLYFDVAAGGLGLDQTQATGLVGVYGALLYLCCWAGGWVSDRVLGAEKTLLGGAISVTIGHLVLAGLGGKIGLAIGLGCIAIGSGFVKTAAITVLGSRHGEQEGDAKADPAFQLFYLGINVGALLGPLLTGWLSSRYSFEMGFGAAAVLMIGGLGIYAALRKPMLQSFPLEVKKALLRAQNPAEKHVISTAFAAVAVLCGVLLYLLLTETVSADQLAGALLLVTIGAALWLIIQPLRHPQVSSEEKRKVLAFIPIFVCSTAFWAVQAQTYGVLAVYSQERVDRMVGDFEIPAAWSQSLNPFFILALSIPISLWFMRGSRAPRVKIGISIGVIIAGSGLLVLIPFVGMPLAPVWVLPLSVFLISLGELFIGPGGMAATAHHAPRIFATRFSALYFLTLAIGMSIAGNVSKFYDPTNHTSELRYFAVFGISIIVIGVGSLMVAKKVG”, the protein production result is on record as “failed”. The same measure for “MVQSSVRRKGARPRDRQTGEPGWDDSLYDDNGEPVQDGRGSGRGGGSAQGGGDGDGPPDEAKGHSRHGGGRRRGGKGDGGGGRPRRRRRVLRWSATVLAVLILGTAGAGYLYYQHLNDNIKKDDLYLGDDKDRAAKPKANAAGQTPLNILLIGSDARDSAANQKLGGAKDTYGGTPRADVQMLLHLSADRSNMSVVSMPRDTLLEIPKCTDPKTSHTYAAITYPTMTNNSLGRGGPGCTVATWEKFTDIHIDHFMMVDFAGVVSMADAIGGVPVCVDANIYSHTSTGHGSGLKLKDGTTSIKGKQALQWLRTRYGFEDGSDIGRTKAQHQYMNSMVRQLRENATLSNPNKLRKLAETATNALTVDDGLGTVSKLYDLSKELKKVPTSRITMTTMPWVYSSDGNRVLPKPNDAAKVFRLLREDIALDGKDKKKSPAQKAVAPAHADDKIAVQVQNGTRTSALAPVGGRANAMAQLLVGKGFTGAAADSSTVLSEDKTVIRYPSADLKGDAQRVAKSLGVPLSSVEKSASVSGVTLIVGGDWRSGTTYKAAEDDDTTPASAKLDKGSDTGACMHVDPDYTWS”: “failed”; for “MVQTRSQDDSKDKGKEVEGANPLEERMLRLESMMDAHSKEMMKHMAEMTMVMSRSTAHKLREEHSSGERSLPRSSTSTDDRVGYQDHRRDQGQDQDHRRDQQQNQDHRRDNRLDQVRYEPQQQHYGNLTRLGKIDLPRFDGTGIKEWLFKVEEFFGIDFTPADLKVKMVAIHFDSHAATWHHSFMQSGVGLEVLYDWPGYVRLLK”: “failed”; for “MVRDNGPGERLSIPPLSGLRKFRRTLSQKYDNHYCYLWMVSSALEYVRKFGIEKEPSRPFHAYAICPKDVPHRSPSIELSYISEVVWLNRIEDDLCYMNIRSLPVSPFSFSNIEKIGFQR”: “not failed”. The same measure for “MVRLAEERDFPGFLGLAGQVEHWFGPMVEDAGFHEAVREHIRRGAALVAVAPDPDTDAGPGAGTGTELLGGLLFGTDTDADAPVHHVHWLVVSRQARAGGVGRALMRDAMRRWVREPAGVEVVTFGADHPGATESGARAFYERLGFTPAEVVAPGPEGGSRQLFRRGAQVRPTRGEHVTTYTGGPA”: “failed”; for “MVRLTPFYKKLSILFVEDEREVQEAALNVLERYIDHILVASDGEEALAIFKEKRPDIVITDIKMPVMDGLALTKEIKELGDTPVIVISAFDNEEFVSEAARLGVETYLLKPIDIQLLLASINRCIELLIRREEARQNRSLLREYKRIVDETAMICKIDLDKTITYANEAFCQISGYSKEELTGKIYRHMVSPRQDLSRLDGGLWVNVLRGKSWKGMIELLNKKGEPYFIQASMFPLFDADGKITELIALQFDITEHIKTKQILEKQNQKLEHIAHTDTLTGVWNRYKFNKILRQEIKCAKSSNHPFSLMLLDVDRFKTINDTHGHQFGDRVLKAITSTLKRQLKHKEAMIARWGGEEFIVLAQGYRLAQALELAERLRAAIEGMEFENIPITSSFGVTEFSPEDELDTLVRRADLALYTAKESGRNRIISY”: “failed”. The same measure for “MVRRLACKRAYRFRFYPTPEQEQLLRRTVGCCRKVYNLALEARSTAWTAERRSITYVQTSAMLTQWKQTAEYSYMNEVSCVPLQQALRHLQTAFSNFFKQTGDYPRFKAKSHGGSAEYTRSAFTWDAKRNELTLAKMRGPLPIRWSRTLPRKTEPSTVTVSLDAAGRWHVSILVEEAIRPLPARGDAVGIDLGVDSYAVTSDGETIANPRHYRKLAERLEREQRALSRKTKGGNNRRKAALKVARTYARITDMRRDFLHKLSTRIIRENQTVVLEDLNVRNMARRCAPKPDPDNPNHWLPNGQSAKNGLNGSIMDAGWSEFRRMLEYKAEWYGRKLITIDRYYPSTQICSHCGAKTGPKGMPGLTVRAWTCPDCGTTHDRDLNAAENILAAGLAVSVCKDGRTGTKVSH”: “failed”; for “MVRVFNHWFSPRKAFYFFAEETVLVVALLAGASLGPVAAQATGAAAPIAPAVLRAGLASLFFAGALYLGDLYDLHAAVRDRADGRRLLRALGVATIALAIADLSLDLVLPGWMLHRSVVLAAAGGALGVIGARALMPAVVGAPTRVLFLGAGPRARDLARAVEREADGLWAVAGFVVPEGSRAPAVVPPEALRQGPVLDVVRQARAQVVVVAMEDRREGLPVDALLALRTRGLRVVDDVGFAEATLQRIPLALVRPSALIFDEGFRVSRLTRTVKRALDLGVSAVGLLLGAPVMAAVAAAIWLSDGRPLLYSQERTGRGGRPYRIWKFRTMRRDAEKLGAAWATDDDPRVLPVGRFLRRARLDELPQLWNVLGGHMSLVGPRPERAVFLSELKARWPLFALRELVKPGLTGWAQLRYGYGSTMEEQAKKLEYDLYYIKNTTLFLDLVCLLATAKVVLLGRGAR”: “failed”; for “MVSLTKRCIAEFIGTFILVFFGAGSAAVTLMIASGGTSPNPFNIGIGLLGGLGDWVAIGLAFGFAIAASIYALGNISGCHINPAVTIGLWSVKKFPGREVVPYIIAQLLGAAFGSFIFLQCAGIGAATVGGLGATAPFPGISYWQAMLAEVVGTFLLMITIMGIAVDERAPKGFAGIIIGLTVAGIITTLGNISGSSLNPARTFGPYLNDMIFAGTDLWNYYSIYVIGPIVGAVLAALTYQYLTSE”: “not failed”.

For “MVSLTMVPIDALLSKEVNAFIVQHKHASVAELMLRMPVFTVDSRWIAAQIEGWQKASQKLPLWASTENIIYPIRLSMEQCSSERTAHYKSTLMSGERLVDLTGGFGVDSFYLSKSFNEVIYIEQQEDLAEIAAHNFSTLNQNNIVVKTADSDEYLKDIAEKIDVIFLDPARRKEMRKVYKLSDCEPNVVALQSFYFSKADVILIKTSPMLDITEATRQLTGIKEIHVVSVDNECKEVLYLLEKNYSGKATYICAHDYKKQLQLFSFTIAAEQAVTLSYSAPLAYLYEPNPSILKAGGFNSITQKYEVFKLHASSHLYTSASEVSDFPGRTFKIKETVGYSKKDIQAAVPGGKANIQTRNFPDSVEAIRKKTGLKDGGNIFIFATTLHDLSKVLLICEKI”, the protein production result is recorded as “failed”.

Consider “MVSMLTRIRRQIKRVIEPLAKTLAQLKVSANFITMLGLIFAIVYYFEIMRSNTTLGIIFLVFSALMDAIDGEVARVSKTVSPLGSFLDSTLDRIEDILYISAFIFLGFSSYLVAIAVGLSLTISYIRAKAESLGLKMEGRGIIERGERIIFVFVILLLYIIVSKQVSLYLFYLFMLLTAITVIQRFYAVYSLLRK”, for which the protein production result is on record as “failed”. The same measure for “MVSNQRVRLFMLCFCLVNNAVIAATEDENVERKPYIVYMGEATENSLVEAAENHHNLLMTVIGDESKARELKIYSYGKNINGFVARLFPHEAEKLSREEGVVSVFKNTQRQLHTTRSWDFLGLVESKYKRSVGIESNIIVGVLDTGIDVESPSFNDKGVGPPPAKWKGKCVTGNNFTRCNNKVIGAKYFHIQSEGLPDGEGDTAADHDGHGTHTSSTIAGVSVSSASLFGIANGTARGGVPSARIAAYKVCWDSGCTDMDMLAAFDEAISDGVDIISISIGGASLPFFEDPIAIGAFHAMKRGILTTCSAGNNGPGLFTVSNLAPWVMTVAANSLDRKFETVVKLGNGLTASGISLNGFNPRKKMYPLTSGSLASNLSAGGYGEPSTCEPGTLGEDKVMGKVVYCEAGREEGGNGGQGQDHVVRSLKGAGVIVQLLEPTDMATSTLIAGSYVFFEDGTKITEYINSTKNPQAVIFKTKTTKMLAPSISSFSARGPQRISPNILKPDISAPGLNILAAYSKLASVTGYPDDNRRTLFSIMSGTSMACPHAAAAAAYVKSFHPDWSPAAIKSALMTTATPMRIKGNEAELSYGSGQINPRRAIHPGLVYDITEDAYLRFLCKEGYNSTSIGLLTGDNSNNTTKKEYNCENIKRGLGSDGLNYPSLHKQVNSTEAKVSEVFYRTVTNVGYGPSTYVARVWAPKGLRVEVVPKVMSFERPKEKRNFKVVIDGVWDETMKGIVSASVEWDDSRGHLVRSPILLFRSDNDYR”: “failed”.
